According to publication PMC4140284, “Human UTY(KDM6C) Is a Male-specific N^ϵ-Methyl Lysyl Demethylase” (The Journal of Biological Chemistry, 2014):
Entries after “also recorded” stand apart in the source; their conditions may differ.

Key:
[1] = tested on: H3K27Me3 levels in HeLa cells; assay: Immunofluorescence of global H3K27Me3 levels on overexpression in HeLa cells; format: cell-based; conditions: exogenous overexpression in HeLa cells
Method: For cell-based experiments, HEK 293T and HeLa cells were cultured at 37 °C and 5% CO2 in DMEM (Lonza) supplemented with 10% fetal bovine serum (FBS) (Invitrogen) and 1% Glutamax (Invitrogen). For microscopy, HeLa cells were seeded into 96-well clear bottom optical grade plates (BD Biosciences) at 8000 cells/well and allowed to settle overnight. Transfections were carried out the next day. For each well, 0.1 μg of plasmid and 0.25 μl of Lipofectamine 2000 (Invitrogen) were each incubated in 25 μl of Opti-MEM (Invitrogen) for 5 min at room temperature. The two solutions were then mixed gently but thoroughly and incubated for 20 min at room temperature. The mixture was added to the cells in 50 μl of fresh medium. Four hours later, the medium was changed, and the cells were incubated for a further 24 h before fixation. Cells were fixed in 4% (v/v) aqueous formaldehyde for 20 min, permeabilized in 0.5% Triton X-100 in phosphate-buffered saline (PBS) for 8 min, and blocked in 3% (w/v) FBS in PBS for 1 h with a PBS wash between each step. The primary antibodies were then added to the cells in blocking solution. […] Luciferase activity was measured using the Promega Dual-Luciferase Reporter Assay System on a Promega GloMax 20/20 luminometer. Readings were normalized to a Renilla luciferase control that was co-transfected with all samples. […]

[2] = tested on: ANF promoter in HEK 293T cells; assay: ANF promoter dual luciferase assay in HEK 293T cells; format: cell-based; conditions: for ANF promoter luciferase expression in the presence of Nkx2.5: Nkx2.5 present
Method: For cell-based experiments, HEK 293T and HeLa cells were cultured at 37 °C and 5% CO2 in DMEM (Lonza) supplemented with 10% fetal bovine serum (FBS) (Invitrogen) and 1% Glutamax (Invitrogen). For microscopy, HeLa cells were seeded into 96-well clear bottom optical grade plates (BD Biosciences) at 8000 cells/well and allowed to settle overnight. Transfections were carried out the next day. For each well, 0.1 μg of plasmid and 0.25 μl of Lipofectamine 2000 (Invitrogen) were each incubated in 25 μl of Opti-MEM (Invitrogen) for 5 min at room temperature. The two solutions were then mixed gently but thoroughly and incubated for 20 min at room temperature. The mixture was added to the cells in 50 μl of fresh medium. Four hours later, the medium was changed, and the cells were incubated for a further 24 h before fixation. Cells were fixed in 4% (v/v) aqueous formaldehyde for 20 min, permeabilized in 0.5% Triton X-100 in phosphate-buffered saline (PBS) for 8 min, and blocked in 3% (w/v) FBS in PBS for 1 h with a PBS wash between each step. The primary antibodies were then added to the cells in blocking solution. After 1 h at room temperature, cells were washed three times in PBS, incubated with secondary antibodies for 1 h, rinsed three times in PBS again, and counterstained with DAPI before imaging. Luciferase activity assays were carried out as described previously ([13], [22], [40]). The atrial natriuretic factor (ANF) promoter-luciferase reporter was a kind gift from Benoit Bruneau ([41]). As for immunofluorescence assays, this construct was co-transfected into HEK 293T cells in the presence of full-length (FL) WT UTY(KDM6C) or H1095 UTY(KDM6C). Luciferase activity was measured using the Promega Dual-Luciferase Reporter Assay System on a Promega GloMax 20/20 luminometer. Readings were normalized to a Renilla luciferase control that was co-transfected with all samples.

Molecule	change in global H3K27Me3 level [1]	ANF promoter luciferase expression in the presence of Nkx2.5 ([2]; HEK 293T cells)	ANF promoter luciferase expression (in words) ([2]; HEK 293T cells, without Nkx2.5, *, p < 0.05 unpaired Student's t test)	increase in ANF promoter-coupled luciferase expression ([2]; overexpression in HEK 293T cells, relative to empty vector control, average of three biological replicates of triplicate transfections)
FL WT UTY(KDM6C): full-length wild type UTY(KDM6C) exogenously expressed in cells (protein, UniProt O14607 1-1347, looked up, full-length, full-length wild type UTY(KDM6C) exogenously expressed in cells) MKSCAVSLTTAAVAFGDEAKKMAEGKASRESEEESVSLTVEEREALGGMDSRLFGFVRLHEDGARTKTLLGKAVRCYESLILKAEGKVESDFFCQLGHFNLLLEDYSKALSAYQRYYSLQADYWKNAAFLYGLGLVYFYYNAFHWAIKAFQDVLYVDPSFCRAKEIHLRLGLMFKVNTDYKSSLKHFQLALIDCNPCTLSNAEIQFHIAHLYETQRKYHSAKEAYEQLLQTENLPAQVKATVLQQLGWMHHNMDLVGDKATKESYAIQYLQKSLEADPNSGQSWYFLGRCYSSIGKVQDAFISYRQSIDKSEASADTWCSIGVLYQQQNQPMDALQAYICAVQLDHGHAAAWMDLGTLYESCNQPQDAIKCYLNAARSKRCSNTSTLAARIKFLQNGSDNWNGGQSLSHHPVQQVYSLCLTPQKLQHLEQLRANRDNLNPAQKHQLEQLESQFVLMQQMRHKEVAQVRTTGIHNGAITDSSLPTNSVSNRQPHGALTRVSSVSQPGVRPACVEKLLSSGAFSAGCIPCGTSKILGSTDTILLGSNCIAGSESNGNVPYLQQNTHTLPHNHTDLNSSTEEPWRKQLSNSAQGLHKSQSSCLSGPNEEQPLFSTGSAQYHQATSTGIKKANEHLTLPSNSVPQGDADSHLSCHTATSGGQQGIMFTKESKPSKNRSLVPETSRHTGDTSNGCADVKGLSNHVHQLIADAVSSPNHGDSPNLLIADNPQLSALLIGKANGNVGTGTCDKVNNIHPAVHTKTDHSVASSPSSAISTATPSPKSTEQRSINSVTSLNSPHSGLHTVNGEGLGKSQSSTKVDLPLASHRSTSQILPSMSVSICPSSTEVLKACRNPGKNGLSNSCILLDKCPPPRPPTSPYPPLPKDKLNPPTPSIYLENKRDAFFPPLHQFCTNPKNPVTVIRGLAGALKLDLGLFSTKTLVEANNEHMVEVRTQLLQPADENWDPTGTKKIWRCESNRSHTTIAKYAQYQASSFQESLREENEKRTQHKDHSDNESTSSENSGRRRKGPFKTIKFGTNIDLSDNKKWKLQLHELTKLPAFARVVSAGNLLTHVGHTILGMNTVQLYMKVPGSRTPGHQENNNFCSVNINIGPGDCEWFVVPEDYWGVLNDFCEKNNLNFLMSSWWPNLEDLYEANVPVYRFIQRPGDLVWINAGTVHWVQAVGWCNNIAWNVGPLTACQYKLAVERYEWNKLKSVKSPVPMVHLSWNMARNIKVSDPKLFEMIKYCLLKILKQYQTLREALVAAGKEVIWHGRTNDEPAHYCSICEVEVFNLLFVTNESNTQKTYIVHCHDCARKTSKSLENFVVLEQYKMEDLIQVYDQFTLALSLSSSS	no detectable decrease; also recorded: no change in H3K27Me3 levels	does not further enhance expression	enhanced expression	5 -fold
Nkx2.5: transcription factor (protein, UniProt P52952 1-324, looked up) Homeobox protein Nkx-2.5: MFPSPALTPTPFSVKDILNLEQQQRSLAAAGELSARLEATLAPSSCMLAAFKPEAYAGPEAAAPGLPELRAELGRAPSPAKCASAFPAAPAFYPRAYSDPDPAKDPRAEKKELCALQKAVELEKTEADNAERPRARRRRKPRVLFSQAQVYELERRFKQQRYLSAPERDQLASVLKLTSTQVKIWFQNRRYKCKRQRQDQTLELVGLPPPPPPPARRIAVPVLVRDGKPCLGDSAPYAPAYGVGLNPYGYNAYPAYPGYGGAACSPGYSCTAAYPAGPSPAQPATAAANNNFVNFGVGDLNAVQSPGIPQSNSGVSTLHGIRAW		enhanced expression from the ANF promoter		
